Laboratory results: paper PMC9935730, “Expression, Purification, Structural and Functional Characterization of Recombinant Human Parvulin 17” (Molecular Biotechnology, 2022)
Square brackets hold non-standard residues; d marks the D form. Primed or numbered codes have the meaning given here. * marks the point of attachment. Dabcyl′ = quencher group on the Lys side chain, CN(C)c1ccc(/N=N/c2ccc(C(=O)*)cc2)cc1; EDANS = O=S(=O)(O)c1cccc2c(NCCN*)cccc12; pS = N[C@@H](COP(=O)(O)O)C(=O)O

T1: FRET peptide substrate Ac-EK(Dabcyl)pSPRFE(EDANS)KA-NH2 (SMILES …)
T1 peptide: Ac-EK(Dabcyl′)[pS]PRFE(EDANS)KA-NH2


Target: T1, FRET peptide substrate …
Test: cell-based or functional assay

Binder | Km, FRET-based chymotrypsin-coupled peptidyl-prolyl cis–trans isomerase assay (values at 1 h) [µM]
Catalytic domain of Pin1, residues 50-163 (domain or fragment, human, UniProt Q13526 50-163, looked up) GEPARVRCSHLLVKHSQSRRPSSWRQEKITRTKEEALELINGYIQKIKSGEEDFESLASQFSDCSSAKARGDLGAFSRGQMQKPFEDASFALRTGEMSGPVFTDSGIHIILRTE | 48.2
Catalytic domain of Par17, residues 60-156 (domain or fragment) not shown | 62.5
